Laboratory results taken from patent US20220073613A1 (XILIO DEVELOPMENT, published 2022).
Numbering of substitutions follows the chain as printed. Numbers in names are those of the source.

B1: Antibody 2-10 (antibody, human IgG1, kappa)
light: ACPFPALELCGGGSSGGSGGSGGSGSGGEIVLTQSPDFQSVTPKEKVTITCSANSALSYMYWYQQKPDQSPKLWVHGTSNLASGVPSRFSGSGSGTDFTLTINSLEAEDAATYYCHHWSNTQWTFGGGTKVEIKRTVAAPSVFIFPPSDEQLKSGTASVVCLLNNFYPREAKVQWKVDNALQSGNSQESVTEQDSKDSTYSLSSTLTLSKADYEKHKVYACEVTHQGLSSPVTKSFNRGEC
heavy: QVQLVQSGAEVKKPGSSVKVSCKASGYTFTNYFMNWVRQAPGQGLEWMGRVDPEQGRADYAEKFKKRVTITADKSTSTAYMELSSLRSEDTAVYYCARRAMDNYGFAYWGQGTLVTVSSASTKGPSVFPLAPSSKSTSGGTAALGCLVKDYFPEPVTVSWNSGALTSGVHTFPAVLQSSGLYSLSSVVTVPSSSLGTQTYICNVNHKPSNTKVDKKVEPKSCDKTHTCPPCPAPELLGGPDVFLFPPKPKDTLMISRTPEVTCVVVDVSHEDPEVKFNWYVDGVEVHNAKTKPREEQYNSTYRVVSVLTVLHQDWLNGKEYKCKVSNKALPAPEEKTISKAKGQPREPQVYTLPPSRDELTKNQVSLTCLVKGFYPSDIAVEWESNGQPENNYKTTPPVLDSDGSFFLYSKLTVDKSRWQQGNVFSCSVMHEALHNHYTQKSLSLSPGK
notes: also called non-cleavable masked Antibody 2-10
B2: Antibody 2-8 (antibody, human IgG1, kappa)
light: ACPFPALELCGGPGSSPMPYDLYHPSGGEIVLTQSPDFQSVTPKEKVTITCSANSALSYMYWYQQKPDQSPKLWVHGTSNLASGVPSRFSGSGSGTDFTLTINSLEAEDAATYYCHHWSNTQWTFGGGTKVEIKRTVAAPSVFIFPPSDEQLKSGTASVVCLLNNFYPREAKVQWKVDNALQSGNSQESVTEQDSKDSTYSLSSTLTLSKADYEKHKVYACEVTHQGLSSPVTKSFNRGEC
heavy: not shown
B3: Antibody 2-16 (antibody, human IgG1, kappa)
light: ACPFPALELCSSGGSGPDSGGFMLTSGGEIVLTQSPDFQSVTPKEKVTITCSANSALSYMYWYQQKPDQSPKLWVHGTSNLASGVPSRFSGSGSGTDFTLTINSLEAEDAATYYCHHWSNTQWTFGGGTKVEIKRTVAAPSVFIFPPSDEQLKSGTASVVCLLNNFYPREAKVQWKVDNALQSGNSQESVTEQDSKDSTYSLSSTLTLSKADYEKHKVYACEVTHQGLSSPVTKSFNRGEC
heavy: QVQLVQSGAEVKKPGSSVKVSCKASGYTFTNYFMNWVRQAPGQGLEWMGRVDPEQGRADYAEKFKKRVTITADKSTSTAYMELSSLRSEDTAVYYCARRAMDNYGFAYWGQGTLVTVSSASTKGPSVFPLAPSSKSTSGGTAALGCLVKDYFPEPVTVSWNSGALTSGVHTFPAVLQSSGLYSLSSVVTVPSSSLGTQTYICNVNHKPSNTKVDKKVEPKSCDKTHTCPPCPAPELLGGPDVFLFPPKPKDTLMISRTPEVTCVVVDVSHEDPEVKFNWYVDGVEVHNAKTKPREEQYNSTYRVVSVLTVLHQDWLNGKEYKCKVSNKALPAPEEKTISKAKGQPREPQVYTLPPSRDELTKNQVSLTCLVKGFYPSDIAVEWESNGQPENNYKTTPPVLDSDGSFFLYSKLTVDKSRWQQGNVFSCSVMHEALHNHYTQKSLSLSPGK
B4: parental humanized anti-CTLA4 antibody 1 (antibody, human IgG1, kappa)
light: DIVMTQTPLSLSVTPGQPASISCRSSQSLLNSDGNTYLYWYLQKPGQSPQLLIYLVSKLGSGVPNRFSGSGSGTDFTLKISRVEAEDVGVYYCVQGTHDPWTFGGGTKVEIKRTVAAPSVFIFPPSDEQLKSGTASVVCLLNNFYPREAKVQWKVDNALQSGNSQESVTEQDSKDSTYSLSSTLTLSKADYEKHKVYACEVTHQGLSSPVTKSFNRGEC
heavy: not shown
notes: Humanized IgG1
B5: Antibody 1-2 (antibody, human IgG1, kappa)
light: B4 light
heavy: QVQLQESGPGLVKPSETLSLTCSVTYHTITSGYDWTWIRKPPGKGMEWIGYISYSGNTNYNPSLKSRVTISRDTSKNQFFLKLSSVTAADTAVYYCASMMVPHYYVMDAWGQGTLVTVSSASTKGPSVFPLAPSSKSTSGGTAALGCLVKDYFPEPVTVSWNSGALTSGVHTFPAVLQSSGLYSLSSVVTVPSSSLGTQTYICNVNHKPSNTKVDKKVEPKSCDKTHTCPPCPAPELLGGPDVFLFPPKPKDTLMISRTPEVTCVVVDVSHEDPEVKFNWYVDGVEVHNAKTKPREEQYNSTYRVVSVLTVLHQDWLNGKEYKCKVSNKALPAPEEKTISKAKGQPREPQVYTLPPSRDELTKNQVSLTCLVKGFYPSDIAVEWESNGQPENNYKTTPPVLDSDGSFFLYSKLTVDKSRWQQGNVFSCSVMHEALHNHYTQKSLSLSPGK
notes: also called version of Antibody 1 having a S239D mutation and an I332E mutation in the Fc region
B6: Antibody 2-7 (antibody, human IgG1, kappa)
light: ACPFPALELCGGSGGSVPLSLYSGGEIVLTQSPDFQSVTPKEKVTITCSANSALSYMYWYQQKPDQSPKLWVHGTSNLASGVPSRFSGSGSGTDFTLTINSLEAEDAATYYCHHWSNTQWTFGGGTKVEIKRTVAAPSVFIFPPSDEQLKSGTASVVCLLNNFYPREAKVQWKVDNALQSGNSQESVTEQDSKDSTYSLSSTLTLSKADYEKHKVYACEVTHQGLSSPVTKSFNRGEC
heavy: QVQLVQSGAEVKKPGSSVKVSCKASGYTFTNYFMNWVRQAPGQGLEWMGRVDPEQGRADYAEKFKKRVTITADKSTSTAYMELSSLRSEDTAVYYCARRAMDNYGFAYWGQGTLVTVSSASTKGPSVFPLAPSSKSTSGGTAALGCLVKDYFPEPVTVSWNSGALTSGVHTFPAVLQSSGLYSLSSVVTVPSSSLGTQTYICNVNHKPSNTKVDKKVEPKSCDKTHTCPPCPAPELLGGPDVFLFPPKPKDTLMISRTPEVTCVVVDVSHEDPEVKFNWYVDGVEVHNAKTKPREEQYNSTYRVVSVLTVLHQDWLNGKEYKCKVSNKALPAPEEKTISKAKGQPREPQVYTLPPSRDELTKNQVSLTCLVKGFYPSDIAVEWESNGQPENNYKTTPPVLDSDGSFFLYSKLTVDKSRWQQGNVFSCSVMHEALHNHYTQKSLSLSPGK
B7: Antibody 2-9 (antibody, human IgG1, kappa)
light: B6 light with G14S, G15P, S16P, V17H, P18E, L19Q, S20L, L21T, Y22V
heavy: not shown
B8: Antibody 1-1 (antibody, V domains shown)
VL: DIVMTQTPLSLSVTPGQPASISCRSSQSLLNSDGNTYLYWYLQKPGQSPQLLIYLVSKLGSGVPNRFSGSGSGTDFTLKISRVEAEDVGVYYCVQGTHDPWTFGGGTKVEIKR
VH: QVQLQESGPGLVKPSETLSLTCSVTYHTITSGYDWTWIRKPPGKGMEWIGYISYSGNTNYNPSLKSRVTISRDTSKNQFFLKLSSVTAADTAVYYCASMMVPHYYVMDAWGQGTLVTVSSA
notes: Humanized; wild type Fc region; Variable domains are stated for Antibody 1; full chains are not tied to the label Antibody 1-1; also called version of Antibody 1 having a wild type Fc region
B9: Antibody 2-1 (antibody, V domains shown)
VL: EIVLTQSPDFQSVTPKEKVTITCSANSALSYMYWYQQKPDQSPKLWVHGTSNLASGVPSRFSGSGSGTDFTLTINSLEAEDAATYYCHHWSNTQWTFGGGTKVEIKR
VH: QVQLVQSGAEVKKPGSSVKVSCKASGYTFTNYFMNWVRQAPGQGLEWMGRVDPEQGRADYAEKFKKRVTITADKSTSTAYMELSSLRSEDTAVYYCARRAMDNYGFAYWGQGTLVTVSSA
notes: Wild-type Fc region; Variable domains are stated for Antibody 2-6, another version of Antibody 2 that differs in the Fc region only; also called version of Antibody 2 having a wild-type Fc region
B10: Antibody 2-2 (antibody, V domains shown)
VL: B9 VL
VH: B9 VH
notes: Fc region with S239D and I332E; also called version of Antibody 2 having a S239D mutation and an I332E mutation in the Fc region; unmasked Antibody 2-2
B11: Antibody 2-3 (antibody, V domains shown)
VL: B9 VL
VH: B9 VH
notes: see m21; also called version of Antibody 2 having a S239D mutation, an I332E mutation in the Fc region, and two hinge region mutations
B12: Antibody 2-4 (antibody, V domains shown)
VL: B9 VL
VH: B9 VH
notes: Fc with S239D, I332E, A330L; also called version of Antibody 2 having S239D, I332E, and A330L mutations in the Fc region
B13: Antibody 2-5 (antibody, V domains shown)
VL: B9 VL
VH: B9 VH
notes: see m21; also called version of Antibody 2 having S239D, I332E, A330L mutations in the Fc region, and two hinge region mutations
B14: Antibody 2-11 (antibody, human IgG1, kappa)
light: ACPFPALELCSSPSPSGGGGIGQLTASGGEIVLTQSPDFQSVTPKEKVTITCSANSALSYMYWYQQKPDQSPKLWVHGTSNLASGVPSRFSGSGSGTDFTLTINSLEAEDAATYYCHHWSNTQWTFGGGTKVEIKRTVAAPSVFIFPPSDEQLKSGTASVVCLLNNFYPREAKVQWKVDNALQSGNSQESVTEQDSKDSTYSLSSTLTLSKADYEKHKVYACEVTHQGLSSPVTKSFNRGEC
heavy: not shown
B15: Antibody 2-12 (antibody, human IgG1, kappa)
light: ACPFPALELCGSPGSPKPILFFRLSGGEIVLTQSPDFQSVTPKEKVTITCSANSALSYMYWYQQKPDQSPKLWVHGTSNLASGVPSRFSGSGSGTDFTLTINSLEAEDAATYYCHHWSNTQWTFGGGTKVEIKRTVAAPSVFIFPPSDEQLKSGTASVVCLLNNFYPREAKVQWKVDNALQSGNSQESVTEQDSKDSTYSLSSTLTLSKADYEKHKVYACEVTHQGLSSPVTKSFNRGEC
heavy: not shown
B16: Antibody 2-13 (antibody, human IgG1, kappa)
light: ACPFPALELCGGSSPPRAAAVKSPSGGEIVLTQSPDFQSVTPKEKVTITCSANSALSYMYWYQQKPDQSPKLWVHGTSNLASGVPSRFSGSGSGTDFTLTINSLEAEDAATYYCHHWSNTQWTFGGGTKVEIKRTVAAPSVFIFPPSDEQLKSGTASVVCLLNNFYPREAKVQWKVDNALQSGNSQESVTEQDSKDSTYSLSSTLTLSKADYEKHKVYACEVTHQGLSSPVTKSFNRGEC
heavy: not shown
B17: Antibody 2-8 (Activated) (antibody, not shown: small tags and cut ends)
light: EIVLTQSPDFQSVTPKEKVTITCSANSALSYMYWYQQKPDQSPKLWVHGTSNLASGVPSRFSGSGSGTDFTLTINSLEAEDAATYYCHHWSNTQWTFGGGTKVEIKRTVAAPSVFIFPPSDEQLKSGTASVVCLLNNFYPREAKVQWKVDNALQSGNSQESVTEQDSKDSTYSLSSTLTLSKADYEKHKVYACEVTHQGLSSPVTKSFNRGEC
heavy: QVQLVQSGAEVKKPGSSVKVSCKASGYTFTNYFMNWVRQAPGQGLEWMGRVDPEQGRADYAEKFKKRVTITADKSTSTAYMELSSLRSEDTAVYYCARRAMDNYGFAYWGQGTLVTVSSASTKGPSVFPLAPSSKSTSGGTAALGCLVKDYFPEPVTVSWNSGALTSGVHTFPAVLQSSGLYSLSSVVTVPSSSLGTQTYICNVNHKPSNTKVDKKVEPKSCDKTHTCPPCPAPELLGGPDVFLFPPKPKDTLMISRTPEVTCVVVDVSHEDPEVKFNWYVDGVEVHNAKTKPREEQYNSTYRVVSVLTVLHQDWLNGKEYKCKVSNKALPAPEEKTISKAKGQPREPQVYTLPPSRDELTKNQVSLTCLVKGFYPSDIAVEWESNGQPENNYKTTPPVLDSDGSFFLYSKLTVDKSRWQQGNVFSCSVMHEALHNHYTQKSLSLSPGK
B18: Antibody 2-9 (Activated) (antibody)
light: B17 light
heavy: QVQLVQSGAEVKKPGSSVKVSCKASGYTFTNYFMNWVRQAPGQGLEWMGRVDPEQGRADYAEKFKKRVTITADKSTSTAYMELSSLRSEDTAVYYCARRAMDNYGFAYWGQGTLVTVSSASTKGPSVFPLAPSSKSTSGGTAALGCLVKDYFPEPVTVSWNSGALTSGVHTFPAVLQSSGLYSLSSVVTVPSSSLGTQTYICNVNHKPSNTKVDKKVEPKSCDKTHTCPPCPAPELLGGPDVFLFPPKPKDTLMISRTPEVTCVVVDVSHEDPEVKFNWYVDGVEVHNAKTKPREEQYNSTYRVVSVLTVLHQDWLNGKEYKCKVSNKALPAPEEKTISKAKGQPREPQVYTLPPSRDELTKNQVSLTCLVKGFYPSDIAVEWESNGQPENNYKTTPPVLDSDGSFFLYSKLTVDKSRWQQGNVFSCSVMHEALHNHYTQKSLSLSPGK
notes: not shown: remnant of the cleaved linker (part of HEQLTV and spacer SGG)
B19: Antibody 2-11 (Activated) (antibody, not shown: small tags and cut ends)
light: B17 light
heavy: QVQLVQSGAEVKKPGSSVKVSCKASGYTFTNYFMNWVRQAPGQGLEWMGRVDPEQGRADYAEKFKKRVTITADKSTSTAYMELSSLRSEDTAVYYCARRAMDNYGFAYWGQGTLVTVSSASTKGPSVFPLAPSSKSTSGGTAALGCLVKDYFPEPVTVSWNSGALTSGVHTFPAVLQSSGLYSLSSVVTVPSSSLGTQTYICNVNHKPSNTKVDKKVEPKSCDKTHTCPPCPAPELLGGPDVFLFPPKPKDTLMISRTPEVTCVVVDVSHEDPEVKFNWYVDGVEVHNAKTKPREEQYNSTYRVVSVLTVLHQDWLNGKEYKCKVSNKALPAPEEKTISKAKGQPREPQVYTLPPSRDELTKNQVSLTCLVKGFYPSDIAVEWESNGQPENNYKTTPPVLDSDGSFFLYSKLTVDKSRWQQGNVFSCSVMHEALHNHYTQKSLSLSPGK
B20: Antibody 2-12 (Activated) (antibody, not shown: small tags and cut ends)
light: B17 light
heavy: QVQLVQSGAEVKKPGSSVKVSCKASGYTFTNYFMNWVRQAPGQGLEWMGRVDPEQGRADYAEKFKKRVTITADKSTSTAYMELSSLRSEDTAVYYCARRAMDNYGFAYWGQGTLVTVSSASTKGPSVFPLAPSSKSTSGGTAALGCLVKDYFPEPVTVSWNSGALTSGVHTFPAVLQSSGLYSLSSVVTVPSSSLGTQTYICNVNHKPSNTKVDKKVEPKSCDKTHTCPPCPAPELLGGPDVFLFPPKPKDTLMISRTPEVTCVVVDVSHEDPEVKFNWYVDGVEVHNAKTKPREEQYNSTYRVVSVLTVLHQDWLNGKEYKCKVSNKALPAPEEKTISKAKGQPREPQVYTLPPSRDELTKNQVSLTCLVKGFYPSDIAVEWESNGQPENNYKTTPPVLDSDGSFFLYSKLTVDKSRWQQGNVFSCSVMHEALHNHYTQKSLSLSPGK
B21: Antibody 2-13 (Activated) (antibody, not shown: small tags and cut ends)
light: B17 light
heavy: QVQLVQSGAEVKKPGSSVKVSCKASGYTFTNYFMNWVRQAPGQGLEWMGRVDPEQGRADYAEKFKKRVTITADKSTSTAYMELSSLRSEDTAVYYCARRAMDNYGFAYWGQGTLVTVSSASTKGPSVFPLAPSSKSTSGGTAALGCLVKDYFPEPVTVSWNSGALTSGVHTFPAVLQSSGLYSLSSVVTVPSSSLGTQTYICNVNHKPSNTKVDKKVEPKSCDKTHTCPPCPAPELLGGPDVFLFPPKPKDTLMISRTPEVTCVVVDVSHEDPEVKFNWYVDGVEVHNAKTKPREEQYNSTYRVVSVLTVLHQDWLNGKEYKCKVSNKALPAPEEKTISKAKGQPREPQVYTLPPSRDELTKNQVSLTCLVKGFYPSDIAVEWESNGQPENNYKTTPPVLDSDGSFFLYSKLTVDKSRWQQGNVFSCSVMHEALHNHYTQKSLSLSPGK

Assays:
[1] = biological target: T1, human CTLA4-Fc (R&D Systems, #7268-CT) (human, UniProt P16410 36-162); assay: low density antigen binding ELISA, human CTLA4-Fc coated; no protease
T1 construct: Bought; not shown: Fc part
T1 sequence (P16410 36-162 limits assumed): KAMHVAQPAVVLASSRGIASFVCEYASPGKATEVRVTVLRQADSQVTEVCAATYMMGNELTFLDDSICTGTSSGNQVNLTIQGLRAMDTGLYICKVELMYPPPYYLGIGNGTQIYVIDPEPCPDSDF

[2] = biological target: T1, human CTLA4-Fc (R&D Systems, #7268-CT); assay: CTLA4 ELISA (luminescence) after culture of the non-cleavable masked antibody in RPMI as control
[3] = biological target: T1, human CTLA4-Fc (R&D Systems, #7268-CT); assay: ELISA, human CTLA4-Fc coated; protease -
[4] = biological target: T1, human CTLA4-Fc (R&D Systems, #7268-CT); assay: CTLA4 ELISA (luminescence) after culture of the masked antibody in RPMI as control
[5] = biological target: T1, human CTLA4-Fc (R&D Systems, #7268-CT); assay: ELISA: plate coated with human CTLA4-Fc (R&D Systems), detection anti-huKappa-HRP, chemiluminescence; signal as fraction of the parental antibody's RLU (Example 5)
[6] = biological target: T1, human CTLA4-Fc (R&D Systems, #7268-CT); assay: low density antigen binding ELISA, human CTLA4-Fc coated at 1 µg/mL, anti-human kappa-HRP
[7] = biological target: T1, human CTLA4-Fc (R&D Systems, #7268-CT); assay: low density antigen binding ELISA, human CTLA4-Fc coated; after protease digestion

| Binder | EC50 [1] | EC50 [6] | also measured |
| --- | --- | --- | --- |
| B1 | 29400 pM |  | EC50 (read off the curve) [2]: ~8000 pM; EC50 [3]: 29400 pM |
| B2 | 54800 pM |  |  |
| B3 |  |  | EC50 (read off the curve) [4]: ~6000 pM |
| B4 |  |  | EC50 (read off the curve) [5]: ~700 pM |
| B5 |  | 320 pM |  |
| B6 | 33900 pM |  | EC50 [3]: 33900 pM |
| B7 | 48900 pM |  |  |
| B8 |  | 320 pM |  |
| B9 |  | 440 pM |  |
| B10 |  | 390 pM |  |
| B11 |  | 400 pM |  |
| B12 |  | 400 pM |  |
| B13 |  | 410 pM |  |
| B14 | 34900 pM |  |  |
| B15 | 3300 pM |  |  |
| B16 | 14200 pM |  |  |
| B17 |  |  | EC50 [7]: 670 pM |
| B18 |  |  | EC50 [7]: 670 pM |
| B19 |  |  | EC50 [7]: 620 pM |
| B20 |  |  | EC50 [7]: 620 pM |
| B21 |  |  | EC50 [7]: 570 pM |
